Reference: patent US20240398942A1 (CHIA TAI TIANQING PHARMACEUTICAL GROUP, published 2024)
Numbering of substitutions follows the chain as printed. Like-named read-outs stand apart in the source and are kept apart here. Values belong to the binder of their own block, whether it stands above or below them.

Tests used:
human CD40-Fc protein [1] = target: T1, human CD40-Fc protein (human, biotinylated (sites not given) in the capture ELISA and the benchmark blocking ELISA; not biotinylated in the ligand blocking ELISA); experiment: capture ELISA: antibody captured on coated goat anti-human IgG F(ab')2, biotinylated human CD40-Fc 1.15 nM, streptavidin-HRP, OD(450-630)
T1 construct: also called biotinylated human CD40-Fc
Experimental: (§1) The plate was washed once with a washing buffer (PBS+0.05% v/v of Tween-20, PBST) and then blocked with 200 μL/well blocking buffer (PBST containing 5% w/v of skim milk) for 2 h at 37° C. The plate was washed 4 times, and the anti-CD40 antibody of the present application, BM1, BM2, and a negative control hIgG (human immunoglobulin for intravenous injection (pH 4), Hualan Biological Engineering Inc.) serially 5-fold diluted from 66.7 nM in a PBST containing 2.5% w/v of skim milk was added at 100 μL per well. The plate was incubated for 40 min at 37° C. and washed 4 times. A biotinylated human CD40-Fc protein (amino acid residues 21-193 of SEQ ID NO: 30 linked to the N terminus of amino acid residues 99-330 of SEQ ID NO: 28, dissolved in PBST containing 2.5% w/v of skim milk at a concentration of 1.15 nM) was added at 100 μL/well to a 96-well plate coated with the anti-CD40 antibody. The plate was incubated at 37° C. for 40 min and washed 4 times. An HRP-labeled streptavidin (diluted at 1:10000 in PBST, Jackson Immuno Research, Cat. No. 016-030-084) was added at 100 μL/well, and the plate was incubated at 37° C. for another 40 min. After the last wash, 100 μL/well of ELISA substrate TMB (Innoreagents, Cat. No. TMB-S-002) was added and the plate was incubated at room temperature. After 3-10 min, the reaction was stopped by adding 1 M H₂SO₄ at 50 µL/well, and the absorbance of each well was read on a microplate reader using the dual wavelength mode (TMB detection wavelength: 450 nm, reference wavelength: 630 nm). Curves of OD(450-630) values vs. antibody concentration were plotted. Data were analyzed using Graphpad Prism software, and EC₅₀ values were obtained.

human CD40-Fc protein [2] = target: T1, human CD40-Fc protein; experiment: as above; remark: listed apart in the source
Experimental: as §1

[3] = target: T2, recombinant human CD40-his (Acro biosystems, Cat. No. CD0-H5228) (human, UniProt P25942 21-193); experiment: BLI (Octet RED 96), antibody captured from cell supernatant on AHC sensor, human CD40-his as analyte, 1:1 fit
T2 construct: Bought protein; also called human CD40-his protein; not shown: His tag
Experimental: After six days of culture in a shake flask, the cell supernatant containing the humanized antibodies huC1H1-V1 to huC1H1-V4 was harvested and the binding affinity of the antibodies to human CD40 was determined on an Octet system (Fortebio, Octet RED 96) according to the following procedures. Briefly, an anti-human IgG Fc capture (AHC) biosensor (from ForteBio) was pre-soaked in a 10 mM glycine solution (pH 1.5) for 3 s, and then soaked in a running buffer (PBST containing 0.5% w/v of BSA) for 3 s. The pre-soaking and soaking procedures were repeated 3 times. Then, the sensor was soaked in the cell supernatant containing the humanized anti-CD40 antibody, chimeric antibody C1H1 dissolved in HBS-EP⁺ buffer at a concentration of 5 μg/mL, or the benchmark dissolved in HBS-EP⁺ buffer at a concentration of 5 μg/mL for 120 s, and then soaked in the running buffer for 5 min. The new baseline was run in the running buffer for 180 s. The sensor was then soaked for 120 s in human CD40-his protein (Acro biosystems, Cat. No. CD0-H5228) 2-fold serially diluted from 40 nM in the running buffer and for 10 min in the running buffer […]. Finally, the sensor was pre-soaked in a 10 mM glycine solution (pH 1.5) for 3 s, and then soaked in the running buffer for 3 s. The pre-soaking and soaking procedures were repeated 3 times. The association and dissociation curves were fitted to a 1:1 Langmuir binding model using ForteBio Data Analysis 8.1.

T2 sequence (P25942 21-193 limits assumed): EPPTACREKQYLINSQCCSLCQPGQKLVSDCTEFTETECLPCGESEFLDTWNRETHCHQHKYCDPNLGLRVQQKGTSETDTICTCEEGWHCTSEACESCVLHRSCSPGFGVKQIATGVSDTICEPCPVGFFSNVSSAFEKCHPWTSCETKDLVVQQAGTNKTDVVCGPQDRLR
T1 sequence (chain, as listed by the source limits assumed): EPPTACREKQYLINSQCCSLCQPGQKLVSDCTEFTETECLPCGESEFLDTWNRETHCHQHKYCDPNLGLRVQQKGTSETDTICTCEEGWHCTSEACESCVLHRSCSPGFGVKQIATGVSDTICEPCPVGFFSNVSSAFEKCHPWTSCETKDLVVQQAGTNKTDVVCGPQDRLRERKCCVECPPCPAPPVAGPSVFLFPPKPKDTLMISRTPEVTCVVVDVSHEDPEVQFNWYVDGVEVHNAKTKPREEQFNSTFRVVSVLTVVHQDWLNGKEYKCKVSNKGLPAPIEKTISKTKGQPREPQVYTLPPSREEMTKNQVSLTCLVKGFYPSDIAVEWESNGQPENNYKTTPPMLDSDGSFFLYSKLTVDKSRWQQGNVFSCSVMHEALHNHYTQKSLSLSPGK

B1: chimeric antibody 1A3 (antibody, human IgG1, kappa, V domains shown)
VH: EVQLQQSGPELVKTGASVKISCKASGYSFIGYYLHWVKQSLGKGLEWIGYISCHDGTIIYNQKFKGKATFTLDTSSSTAYMQFSSLTSEDSAVYFCARFLNYYGSNYAMDYWGQGTSVTVSS
VL: DIVMTQSHKFMSTSVGDRVSITCKASQDVGPAVAWYQQKPGQSPKLLIYWASTRHTGVPDRFTGSGYGTDFTLTINNVQSEDLADYFCQQYFTYPLTFGGGTKLEIKR
notes: Mouse variable regions on human IgG1 / kappa constant regions
EC50 (human CD40-Fc protein [1]): 1.33 nM

B3: chimeric antibody 1D1 (antibody, human IgG1, kappa, V domains shown)
VH: EVQLQQSGPELVKPGASVKMSCKASGYTFTDYVMHWVKQKPGQGLECIGYINPYNDGTTYNEKFKGKATLTSDKSSNAAYLELSSLTSEDSAVYYCARGFLRESWFGYWGQGTLVTVSA
VL: DVLLTQTPLSLPVSLGDQASISCRSSQNIVHSNGNTYLDWYLQKPGQSPKLLIYKVSNRFSGVPDRFSGSGSGTDFTLKISRVEAEDLGVYYCFQGSHVPPTFGGGTKLELKR
notes: as for B1
EC50 (human CD40-Fc protein [2]): 15 nM

B5: humanized antibody huC1H1-V3 (antibody, human IgG2, kappa, V domains shown)
VH: EVQLVESGGGLVKPGGSLRLSCAASGFTFSNYGISWVRQAPGKGLEWVASISSGGDNTYYPDNVKGRFTISRDNAKNSLYLQMNSLRAEDTAVYYCARAGEKAMDYWGQGTLVTVSS
VL: EIVLTQSPATLSLSPGERATLSCRASQTINNNLHWYQQKPGQAPRLLIYYASQSISGIPARFSGSGSGTDFTLTISSLEPEDFAVYYCQQFSSWPLTFGGGTKVEIKR
notes: Human IgG2 / kappa; Tested as cell supernatant in the Octet assay
Kd [3]: 5.41 nM
koff [3]: 0.00283 s⁻¹
kon [3]: 523000 M⁻¹ s⁻¹

Now from value to binder:

EC50 (human CD40-Fc protein [1]): 0.592 nM
B2: mouse anti-CD40 monoclonal antibody 1A3 (parent of chimeric antibody 1A3) (antibody, V domains shown)
VH: B1 VH
VL: DIVMTQSHKFMSTSVGDRVSITCKASQDVGPAVAWYQQKPGQSPKLLIYWASTRHTGVPDRFTGSGYGTDFTLTINNVQSEDLADYFCQQYFTYPLTFGGGTKLEIK
notes: Parent mouse antibody of chimeric 1A3; also called parent antibody

EC50 (human CD40-Fc protein [2]): 8.7 nM
B4: mouse anti-CD40 monoclonal antibody 1D1 (parent of chimeric antibody 1D1) (antibody, V domains shown)
VH: B3 VH
VL: DVLLTQTPLSLPVSLGDQASISCRSSQNIVHSNGNTYLDWYLQKPGQSPKLLIYKVSNRFSGVPDRFSGSGSGTDFTLKISRVEAEDLGVYYCFQGSHVPPTFGGGTKLELK
notes: Parent mouse antibody of chimeric 1D1; also called parent antibody

Kd [3]: 8.66 nM
koff [3]: 0.00367 s⁻¹
kon [3]: 424000 M⁻¹ s⁻¹
B6: humanized antibody huC1H1-V4 (antibody, human IgG2, kappa, V domains shown)
VH: B5 VH with A49S
VL: B5 VL
notes: as for B5
